Measurements as given in publication PMC9927398.

Assays:
CRP WT (CRPMtb) [1] = target: T1, CRP WT (CRPMtb) (Mycobacterium tuberculosis (strain for …, UniProt P9WMH3 1-224)); assay: EMSA; no cAMP; 5 and 15 uM protein; conditions: protein: recombinant; tags: His tag (Ni2+ purified; pET28a); chain copies: 2; blunt
T1 sequence: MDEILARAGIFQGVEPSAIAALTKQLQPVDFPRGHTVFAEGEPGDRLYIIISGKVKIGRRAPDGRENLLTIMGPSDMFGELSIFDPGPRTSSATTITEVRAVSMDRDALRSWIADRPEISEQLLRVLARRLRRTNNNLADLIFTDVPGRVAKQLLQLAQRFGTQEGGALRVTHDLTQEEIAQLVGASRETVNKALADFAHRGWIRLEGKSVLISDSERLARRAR

CRP WT (CRPMtb) [2] = target: T1, CRP WT (CRPMtb); assay: competition; conditions: protein: recombinant; tags: His tag (Ni2+ purified; pET28a); chain copies: 2; blunt

B1: 2D3 (dsDNA)
DNA 1: CTCTATGTGACGAAGCCCACATCGAC
DNA 2: GTCGATGTGGGCTTCGTCACATAGAG
CRP WT (CRPMtb) [1]
  binding result: binds

B2: 2D3 unlabeled competitor (dsDNA)
DNA 1: CTCTATGTGACGAAGCCCACATCGAC
DNA 2: GTCGATGTGGGCTTCGTCACATAGAG
CRP WT (CRPMtb) [2]
  binding result: binds
